Measurements from the supplement of paper PMC7877785.
± gives the uncertainty stated by the source.

Experiment: self-splicing fitness, log relative to wild type (ln ratio); higher = more splicing; Tetrahymena group I intron in knt gene, E. coli kanamycin selection, DiMSum; sequences stand for … in CUCUCU…GGAGGGAAAAGUUAUCAGGCAUGCACCUGGUAGCUAGUCUUUAAACCAAUAGAUUGCAUCGGUUUAAAAGGCAAGACCGUCAAAUUGCGGGAAAGGGGUCAACAGCCGUUCAGUACCAAGUCUCAGGGGAAACUUUGAGAUGGCCUUGCAAAGGGUAUGGUAAUAAGCUGACGGACAUGGUCCUAACCACGCAGCCAAGUCCUAAGUCAACAGAUCUUCUGUUGAUAUGGAUGCAGUUCACAGACUAAAUGUCGGUCGGGGAAGAUGUAUUCUUCUCAUAAGAUAUAGUCGGACCUCUCCUUAAUGGGAGCUAGCGGAUGAAGUGAUGCAACACUGGAGCCGCUGGGAACUAAUUUGUAUGCGAAAGUAUAUUGAUUAGUUUUGGAGUACUCGUGGUCG
Outline: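 A randomised library covering all eight P1ex-region intron nucleotides was built with the intron in the knt kanamycin-resistance gene on pET-22b(+) and held in E. coli BL21(DE3). Cells were grown overnight at 37°C or 30°C on LB agar, with or without 25 μg/mL kanamycin, plus 100 μg/mL carbenicillin, 50 μM IPTG and 0.2% rhamnose, and pooled colonies were amplicon-sequenced on an Illumina HiSeq 2500. DiMSum fitness is the error-weighted combination of wild-type-normalised replicate fold changes, kanamycin versus none.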

| Sequence | self-splicing fitness (ln) (30 °C) | self-splicing fitness (ln) (37 °C) |
| --- | --- | --- |
| UGUCAGCAAUAUUACGCAUU | -1.74 ± 0.09 | -0.133 ± 0.092 |
| UGUCAGCAAUAUUACGCCAG | -1.31 ± 0.1 | -0.7 ± 0.12 |
| UGUCAGCAAUAUUACGCCAU | -1.79 ± 0.18 | -1.98 ± 0.16 |
| UGUCAGCAAUAUUACGCGAG | -1.31 ± 0.096 | -0.991 ± 0.098 |
| UGUCAGCAAUAUUACGCGAU | -3.41 ± 0.4 | -2.2 ± 0.34 |
| UGUCAGCAAUAUUACGCGGA | -2.91 ± 0.2 | -1.52 ± 0.15 |
| UGUCAGCAAUAUUACGCGUC | -2.7 ± 0.3 | -1.51 ± 0.29 |
| UGUCAGCAAUAUUACGGAAU | -2.63 ± 0.15 | -0.922 ± 0.14 |
| UGUCAGCAAUAUUACGGACA | -3.1 ± 0.29 | -1.75 ± 0.21 |
| UGUCAGCAAUAUUACGGACG | -2.2 ± 0.15 | -1.34 ± 0.18 |
| UGUCAGCAAUAUUACGGAUG | -2.07 ± 0.088 | -0.996 ± 0.1 |
| UGUCAGCAAUAUUACGGCAG | -1.55 ± 0.11 | -0.219 ± 0.13 |
| UGUCAGCAAUAUUACGGGAC | -4.31 ± 0.23 | -2.93 ± 0.34 |
| UGUCAGCAAUAUUACGGGCC | -0.854 ± 0.12 | -0.00781 ± 0.16 |
| UGUCAGCAAUAUUACGGUAC | -4.07 ± 0.46 | -1.38 ± 0.17 |
| UGUCAGCAAUAUUACGGUGG | -2.14 ± 0.099 | -1.32 ± 0.097 |
| UGUCAGCAAUAUUACGGUUG | -0.893 ± 0.049 | 0.317 ± 0.072 |
| UGUCAGCAAUAUUACGUCGA | -0.404 ± 0.073 | -0.0273 ± 0.085 |
| UGUCAGCAAUAUUACGUGAA | -0.122 ± 0.068 | 0.427 ± 0.083 |
| UGUCAGCAAUAUUACGUGAG | -0.0851 ± 0.056 | 0.251 ± 0.072 |
| UGUCAGCAAUAUUACGUUGU | -4.25 ± 0.27 | -2.3 ± 0.16 |
| UGUGAGCAAUAUUACGAAUA | -3.54 ± 0.43 | -2.26 ± 0.36 |
| UGUGAGCAAUAUUACGAAUC | -2.91 ± 0.38 |  |
| UGUGAGCAAUAUUACGACCG | -1.22 ± 0.19 | -0.38 ± 0.21 |
| UGUGAGCAAUAUUACGACUU | -2.13 ± 0.23 | -2.33 ± 0.26 |

| Sequence | self-splicing fitness (ln) (30 °C) | self-splicing fitness (ln) (37 °C) |
| --- | --- | --- |
| UGUGAGCAAUAUUACGAGUA | -2.16 ± 0.21 | -2.07 ± 0.29 |
| UGUGAGCAAUAUUACGAGUC | -2.67 ± 0.27 |  |
| UGUGAGCAAUAUUACGCACC | -1.27 ± 0.21 | -1.14 ± 0.22 |
| UGUGAGCAAUAUUACGCCCA | -0.902 ± 0.39 | -1.3 ± 0.36 |
| UGUGAGCAAUAUUACGCUAC | -3 ± 0.32 |  |
| UGUGAGCAAUAUUACGGAAC |  | -1.72 ± 0.48 |
| UGUGAGCAAUAUUACGGCAG | -2.64 ± 0.27 | -0.26 ± 0.28 |
| UGUGAGCAAUAUUACGGGAG | -2.52 ± 0.21 | -2.04 ± 0.33 |
| UGUGAGCAAUAUUACGGGCU | -0.671 ± 0.38 | -1.48 ± 0.46 |
| UGUGAGCAAUAUUACGGUUC | -2.76 ± 0.21 | -2.9 ± 0.24 |
| UGUGAGCAAUAUUACGUCAC | -3.91 ± 0.47 |  |
| UGUGAGCAAUAUUACGUGCA | -1.1 ± 0.14 | -0.55 ± 0.16 |
| UGUGAGCAAUAUUACGUGUG | -2.7 ± 0.11 | -0.66 ± 0.13 |
| UGUGAGCAAUAUUACGUGUU | -3.8 ± 0.25 | -2.59 ± 0.25 |
| UGUGAGCAAUAUUACGUUAG | -2.17 ± 0.25 | -2.84 ± 0.34 |
| UGUGAGCAAUAUUACGUUGG | -2.86 ± 0.31 | -2.85 ± 0.44 |
| UGUUAGCAAUAUUACGAACU | -0.445 ± 0.15 | 0.216 ± 0.18 |
| UGUUAGCAAUAUUACGAAUU | -1.44 ± 0.11 | -1.6 ± 0.22 |
| UGUUAGCAAUAUUACGACCG | -0.238 ± 0.14 | 0.106 ± 0.14 |
| UGUUAGCAAUAUUACGACUC | -1.01 ± 0.19 | -0.182 ± 0.28 |
| UGUUAGCAAUAUUACGAUGA | -0.408 ± 0.09 | -1.06 ± 0.092 |
| UGUUAGCAAUAUUACGAUGG | -1.71 ± 0.11 | -0.474 ± 0.1 |
| UGUUAGCAAUAUUACGCAAA | -0.989 ± 0.22 | -0.62 ± 0.32 |
| UGUUAGCAAUAUUACGCAUG | -1.38 ± 0.084 | -0.483 ± 0.089 |
